# Assay results taken from patent US20220363718A1 (Bicycle, published 2022).
# *1 amine or outer side, *2 acyl side, *3 side chain or, on linkers, in order; H or OH if unused. Bridges are numbered along the chain shown (N, C = ends). Where no end group is shown, it is not given here. [ ]: non-standard residue; d: D form. The star is where a group is joined. TATA = O=C(CC[*:1])N1CN(C(=O)CC[*:2])CN(C(=O)CC[*:3])C1; Trp(1-Me) = Cn1cc(C[C@H](N)C(=O)O)c2ccccc21; Arg(Me2a) = CN(C)C(=N)NCCC[C@H](N)C(=O)O; Phe(4-F) = N[C@@H](Cc1ccc(F)cc1)C(=O)O; 1Nal = N[C@@H](Cc1cccc2ccccc12)C(=O)O; tBuAla = CC(C)(C)C[C@H](N)C(=O)O; NMeA = CN[C@@H](C)C(=O)O; Octanoyl = CCCCCCCC(=O)*
# Molecular target: TSLP (as used in the human PBMC assay) (UniProt Q969D9 29-159)
# Experiment: cell-based or functional assay
"CCL17 % Inhibition @ 10 µM, 50 pM TSLP","CCL17 % Inhibition @ 10 µM, 666 pM TSLP","CCL17 % Inhibition @ 10 µM, 400 pM TSLP",Binder
–,-4%,–,SHVCRDLDPWTCDSWWLCA (linker 4-12-18 via TATA) [Example 188]
–,0%,–,ACRDLDPWTCSSWWLCA (linker 2-10-16 via TATA; not fully specified (C-terminus)) [Example 164]
–,-1%,–,ACRDLDPWTCSSWWLCANV (linker 2-10-16 via TATA) [Example 186]
–,33%,–,AHPCADLDPWTCPNWWLCA (linker 4-12-18 via TATA; not fully specified (C-terminus)) [Example 165]
–,-3%,–,ACDWHWEYDCWLSCA (linker 2-10-14 via TATA) [Example 199]
–,47%,–,ACRDLDPWTCSSWWLCADGLYDA (linker 2-10-16 via TATA) [Example 193]
–,-10%,–,ACDWHWEYDCWLSCEPETGQA (linker 2-10-14 via TATA) [Example 221]
–,11%,–,RAPCPDLDPWTCSDWWLCA (linker 4-12-18 via TATA) [Example 187]
–,36%,–,YATTQVCRDLDPWTCSSWWLCA (linker 7-15-21 via TATA) [Example 171]
–,0%,–,ACTWLDDCWRGFCA (linker 2-8-13 via TATA; not fully specified (C-terminus)) [Example 76]
–,-42%,–,DHDCTWNWEYDCWLDCA (linker 4-12-16 via TATA) [Example 200]
–,-18%,–,Ac-CQWLEDCWRGFC (linker 1-7-12 via TATA) [Example 79]

# More lines, now with the values behind:
Binder,"CCL17 % Inhibition @ 10 µM, 50 pM TSLP","CCL17 % Inhibition @ 10 µM, 666 pM TSLP","CCL17 % Inhibition @ 10 µM, 400 pM TSLP"
Ac-C[NMeA][1Nal][tBuAla]QDC[Trp(1-Me)][Arg(Me2a)]G[Phe(4-F)]C (linker 1-7-12 via TATA; not fully specified (C-terminus)) [Example 25],71%,–,–
CQXLEDCWRGXC (not fully specified; Ac-CQ[Nal1]LEDCWRG[4-FPhe]C; 3 Cys cyclised with TATA) [Example 27],–,33%,–
ACQWLEDCWRGFCADGDML (linker 2-8-13 via TATA) [Example 42],< 20%,47%,–
Ac-ACQWLEDCWRGFCPLD (linker 2-8-13 via TATA) [Example 53],–,-2%,–
ACTWLEDCWRGFCADS (linker 2-8-13 via TATA) [Example 63],–,24%,–
Ac-CQW[tBuAla]EDCWRGFC (linker 1-7-12 via TATA; not fully specified (C-terminus); printed as Ac-CQW[tBuA]EDCWRGFC) [Example 44],–,52%,–
GTDSAECQWLEDCWRGFCA (linker 7-13-18 via TATA) [Example 45],–,0%,–
SPPCVWLDDCWRGFCA (linker 4-10-15 via TATA) [Example 73],–,-11%,–
CQXLEDCXRGXC (not fully specified; Ac-CQ[TrpMe]LEDC[TrpMe]RG[4-FPhe]C; 3 Cys cyclised with TATA) [Example 16],–,52%,–
"CQWLEDCWRGXC (not fully specified; Ac-CQWLEDCWRG[3,4diClPhe]C; 3 Cys cyclised with TATA) [Example 11]",–,43%,–
CQWLEDCWRGXC (not fully specified; Ac-CQWLEDCWRG[4F3ClPhe]C; 3 Cys cyclised with TATA) [Example 8],71%,–,–
TMEYRDCQWLEDCWRGFCA (linker 7-13-18 via TATA) [Example 56],–,40%,–
CQWLEDCWRGXC (not fully specified; Ac-CQWLEDCWRG[Nal2]C; 3 Cys cyclised with TATA) [Example 50],–,33%,–
ACQWLEDCWRGFCSSSDQS (linker 2-8-13 via TATA) [Example 59],–,2%,–
ACHWLEDCWRGFCHLE (linker 2-8-13 via TATA; not fully specified (C-terminus)) [Example 75],–,-2%,–
CQWLEDCWRGXC (not fully specified; Ac-CQWLEDCWRG[3-MePhe]C; 3 Cys cyclised with TATA) [Example 74],–,43%,–
CQWLEDCWRGXC (not fully specified; Ac-CQWLEDCWRG[3-ClPhe]C; 3 Cys cyclised with TATA) [Example 32],–,14%,–
Octanoyl-C[NMeA][Trp(1-Me)][tBuAla]QDC[Trp(1-Me)][Arg(Me2a)]G[Phe(4-F)]C-NH2 (linker 1-7-12 via TATA; SMILES CCCCCCCC(=O)N[C@H]1CSCCC(=O)N2CN3CN(C2)C(=O)CCSC[C@H](NC(=O)[C@H](CC(=O)O)NC(=O)[C@H](CCC(N)=O)NC(=O)[C@H](CC(C)(C)C)NC(=O)[C@H](Cc2cn(C)c4ccccc24)NC(=O)[C@H](C)N(C)C1=O)C(=O)N[C@@H](Cc1cn(C)c2ccccc12)C(=O)N[C@@H](CCCNC(=N)N(C)C)C(=O)NCC(=O)N[C@@H](Cc1ccc(F)cc1)C(=O)N[C@H](C(N)=O)CSCCC3=O) [Example 15],58%,–,64%
Ac-C[NMeA][1Nal][tBuAla]QDC[Trp(1-Me)][Arg(Me2a)]G[Phe(4-F)]C[dA] (linker 1-7-12 via TATA; not fully specified (C-terminus)) [Example 29],61%,–,62%
CQWLEDCWRGXC (not fully specified; Ac-CQWLEDCWRG[Nal1]C; 3 Cys cyclised with TATA) [Example 47],–,-7%,–
ACQWLEDCWRGFCA (linker 2-8-13 via TATA) [Example 68],–,33%,–
CQWLEDCWRGXC (Ac-CQWLEDCWRG[4-ClPhe]C; 3 Cys cyclised with TATA) [Example 14],–,14%,–

# Molecular target: T1, Biotinylated human TSLP (hTSLP(29-159)-Avi) (human, biotinylated (C-terminal Avi-tag))
# T1 construct: also called thymic stromal lymphopoietin
# Experiment: SPR, biotinylated hTSLP on streptavidin chip, peptide injected
# T1 sequence (chain, as listed by the source limits assumed): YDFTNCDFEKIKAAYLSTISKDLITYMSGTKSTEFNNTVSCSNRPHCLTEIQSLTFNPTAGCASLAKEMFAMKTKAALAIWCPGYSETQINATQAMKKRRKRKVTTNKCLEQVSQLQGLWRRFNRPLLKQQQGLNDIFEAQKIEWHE
row,Kd,Binder
1,340 nM,ANDCVWHWEYDCWLDCA (linker 4-12-16 via TATA; not fully specified (C-terminus)) [Example 220]
2,910 nM,DEQHHECDWHWEYDCWLSCA (linker 7-15-19 via TATA; not fully specified (C-terminus)) [Example 209]
3,240 nM,SPTEPPCDWHWEYDCWLSC (linker 7-15-19 via TATA; not fully specified (C-terminus)) [Example 215]
4,170 nM,ADGCEWNWAYDCWLGCA (linker 4-12-16 via TATA) [Example 201]
5,320 nM,SQECQWNWTYDCWLGCA (linker 4-12-16 via TATA) [Example 203]
6,180 nM,SNATKQCDWHWEYDCWLSCA (linker 7-15-19 via TATA; not fully specified (C-terminus)) [Example 210]
7,2000 nM,Ac-CDWHWEYDCWLSC (linker 1-9-13 via TATA; not fully specified (C-terminus)) [Example 218]
8,860 nM,NRSPSECDWHWEYDCWLSC (linker 7-15-19 via TATA; not fully specified (C-terminus)) [Example 217]
9,430 nM,ACDWNWTYDCWLDCAPI (linker 2-10-14 via TATA) [Example 206]
10,250 nM,ACDWHWEYDCWLSCDPSSKQA (linker 2-10-14 via TATA) [Example 212]
11,100 nM,AETCKWMWEYDCWLSCA (linker 4-12-16 via TATA) [Example 204]
12,320 nM,CDWHWEYDCWLSCEPETGQ (linker 1-9-13 via TATA; not fully specified (C-terminus)) [Example 216]
13,340 nM,ACDWDWDYDCWLPCFAE (linker 2-10-14 via TATA; not fully specified (C-terminus)) [Example 208]
